Target: T1, T4 DNA ligase (T4DL) (UniProt P00970 1-487)
T1 sequence: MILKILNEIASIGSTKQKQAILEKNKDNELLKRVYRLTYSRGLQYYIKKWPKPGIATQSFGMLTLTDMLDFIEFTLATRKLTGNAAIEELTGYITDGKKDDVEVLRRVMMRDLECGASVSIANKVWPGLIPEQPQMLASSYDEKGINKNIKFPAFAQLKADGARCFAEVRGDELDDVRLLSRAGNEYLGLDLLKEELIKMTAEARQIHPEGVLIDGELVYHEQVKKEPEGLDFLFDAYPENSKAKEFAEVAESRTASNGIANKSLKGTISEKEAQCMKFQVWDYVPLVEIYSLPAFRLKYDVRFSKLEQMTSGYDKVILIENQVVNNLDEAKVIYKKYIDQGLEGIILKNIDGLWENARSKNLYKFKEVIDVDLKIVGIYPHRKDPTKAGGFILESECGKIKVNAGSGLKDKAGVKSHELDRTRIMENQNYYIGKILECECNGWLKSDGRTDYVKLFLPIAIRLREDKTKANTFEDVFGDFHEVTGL
Assay: fluorescence anisotropy

B1: DAS1M (structured_DNA)
DNA: ATCTCGACTAGTCAGTCTCCCCAGCTAAAAAAAAAAAAAGTTGGGGAAAAAAAAAATCCGAATGTCTCGGAT
modifications: 5' phosphate
For B1, the Kd was 1270 ± 300 nM.
